One data set concerns the target His6-O-Mad2^ΔN10 (human). Description: SEC; gel filtration of the high-salt peak (Q2) of anion exchange chromatography (holds the C-Mad2 conformer). (In general: In gel filtration, larger molecules generally elute earlier.)
Data set [1] concerns the molecule itself. The description is as above.
Data set [2] concerns the molecule itself. The data set is described as follows: AUC; sedimentation equilibrium at 4 °C; 0.23, 0.36 and 0.50 mg/ml; 20 mM Tris pH 8.0, 50 mM NaCl, 0.2 mM TCEP; 13,000, 17,500 and 25,000 rpm; global fit to a monomer-dimer equilibrium; dimer to monomers.
A further data set addresses Human Cdc20 (human, UniProt Q12834 1-499). The data set is described as follows: cell-based or functional assay.
The target in another data set is Mad2^R133A (human, UniProt Q13257 1-205, R133A). The data set is described as follows: ITC. A general note: Isothermal titration calorimetry measures the heat released or taken up as one component is titrated into another.
The target in data set [3] is Mad2^L153A (in the background of R133A) (human, UniProt Q13257 1-205, L153A | R133A). Description: ITC.
Data set [4] has as its target Mad2^Y156A (in the background of R133A) (human, UniProt Q13257 1-205, Y156A | R133A). Description: ITC.
For data set [5], the target named is Mad2^L13A,R133A double mutant (human, UniProt Q13257 1-205, L13A | R133A). Description: ITC.

Human Cdc20, sequence (Q12834 whole entry): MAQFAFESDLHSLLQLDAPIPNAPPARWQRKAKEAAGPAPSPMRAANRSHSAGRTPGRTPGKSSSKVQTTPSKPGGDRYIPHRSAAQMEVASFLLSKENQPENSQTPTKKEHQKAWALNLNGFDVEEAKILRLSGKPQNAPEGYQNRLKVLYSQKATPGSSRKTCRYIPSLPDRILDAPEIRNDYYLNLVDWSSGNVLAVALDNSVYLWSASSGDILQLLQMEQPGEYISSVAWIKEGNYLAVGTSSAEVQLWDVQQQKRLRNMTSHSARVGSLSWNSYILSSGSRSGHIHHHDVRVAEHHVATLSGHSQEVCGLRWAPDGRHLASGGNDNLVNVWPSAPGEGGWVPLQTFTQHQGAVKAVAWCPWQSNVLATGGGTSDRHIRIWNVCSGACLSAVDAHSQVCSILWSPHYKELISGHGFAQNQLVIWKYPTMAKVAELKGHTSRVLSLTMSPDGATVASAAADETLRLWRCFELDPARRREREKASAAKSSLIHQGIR

As to “untagged C-Mad2^ΔN10 (domain or fragment)”, the stoichiometry N (as a rule, the number of molecules, sites or subunits per partner or assembly) with His6-O-Mad2^ΔN10 (human) came to 1.

B1: Mad2^L13A,C79S,C106S triple mutant (natural protein, human, UniProt Q13257 1-205, looked up)
chain: MALQLSREQGITARGSAEIVAEFFSFGINSILYQRGIYPSETFTRVQKYGLTLLVTTDLELIKYLNNVVEQLKDWLYKSSVQKLVVVISNIESGEVLERWQFDIESDKTAKDDSAPREKSQKAIQDEIRSVIRQITATVTFLPLLEVSCSFDLLIYTDKDLVVPEKWEESGPQFITNSEEVRLRSFTTTIHKVNSMVAYKIPVND
notes: Mad2, human, coding region (205 residues), with L13A, C79S and C106S; also called Mad2^L13A dimer; symmetric C–C Mad2 dimer; source: E. coli BL21 (pGEX), purified (glutathione-Sepharose, TEV cleavage, anion exchange, gel filtration)
B1: the “stoichiometry N” value in data set [1] is 2. Further, in data set [2], the Kd (commonly a measure of binding affinity in units of concentration) was 250 nM and the “stoichiometry N” value was roughly 2. Besides, the “inhibition of APC/C^Cdc20 in an in vitro reconstituted APC/C ubiquitination assay (Myc-cyclin B1); Mad2 dimers at 1–16 μM preincubated with Cdc20 for 30 min” value in the data set with Human Cdc20 is roughly 3 fold.

B2: Mad2-binding motif of Cdc20 (domain or fragment)
chain: EHQKAWALNLNGFDVEEAKILRLSGKPQ
modifications: Limits not printed. 111-138 is the conventional Mad2-binding fragment of human Cdc20 around the KILR motif (129-132). Check residues come from the candidate's motif feature, not from the paper.
With B2, the Kd is 140 nM with Mad2^R133A, 210 nM in data set [3], 560 nM in data set [4] and 120 nM in data set [5].

These data come from paper PMC2270309, “Insights into Mad2 Regulation in the Spindle Checkpoint Revealed by the Crystal Structure of the Symmetric Mad2 Dimer” (PLoS Biology, 2008).
